Data taken from US12698495B2, “Engineered tryptophan decarboxylases and uses thereof for synthesizing tryptamine analogs” (priority 2022, dated 2026).

Assays:
serotonin receptor = conditions: known from literature (ref. 43); cited from earlier work
[1] = cited from earlier work
[2] = PfTrpB variant activity and promiscuity; type: biochemical, Pyrococcus furiosus

CCOc1ccc2[nH]cc(CCN)c2c1 [5-OEt-tryptamine]
serotonin receptor activity (serotonin receptor): agonists

COc1ccc2[nH]cc(CCN)c2c1 [5-OMe-tryptamine]
serotonin receptor activity (serotonin receptor): agonists

B1: 2B9: engineered PfTrpB variant 2B9, SEQ ID NO:3 (protein, listed as Pyrococcus furiosus)
chain: MWFGEFGGQYVPETLVGPLKELEKAYKRFKDDEEFNRQLNYYLKTWAGRPTPLYYAKRLTEKIGGAKVYLKREDLVHGGAHKTNNAIGQALLAKLMGKTRLIAETGAGQHGVATAMAGALLGMKVDIYMGAEDVERQKMNVFRMKLLGANVIPVNSGSRTLKDAINEALRDWVATFEYTHYLIGSVVGPHPYPTIVRDFQSVIGREAKAQILEAEGQLPDVIVACVGGGSNAMGIFYPFVNDKKVKLVGVEAGGKGLESGKHSASLNAGQVGVSHGMLSYFLQDEEGQIKPSHSIAPGLDYPGVGPEHAYLKKIQRAEYVAVTDEEALKAFHELSRTEGIIPALESAHAVAYAMKLAKEMSRDEIIIVNLSGRGDKDLDIVLKASGNVLEHHHHHH
activity with a variety of substrate analogs ([1]; 75° C.): high activity
activity at lower temperatures ([1]; lower temperatures than 75° C.): activity decreases

B2: H275E (protein, listed as Pyrococcus furiosus)
chain: MWFGEFGGQYVPETLVGPLKELEKAYKRFKDDEEFNRQLNYYLKTWAGRPTPLYYAKRLTEKIGGAKVYLKREDLVHGGAHKTNNAIGQALLAKLMGKTRLIAETGAGQHGVATAMAGALLGMKVDIYMGAEDVERQKMNVFRMKLLGANVIPVNSGSRTLKDAINEALRDWVATFEYTHYLIGSVVGPHPYPTIVRDFQSVIGREAKAQILEAEGQLPDVIVACVGGGSNAMGIFYPFVNDKKVKLVGVEAGGKGLESGKHSASLNAGQVGVSEGMLSYFLQDEEGQIKPSHSIAPGLDYPGVGPEHAYLKKIQRAEYVAVTDEEALKAFHELSRTEGIIPALESAHAVAYAMKLAKEMSRDEIIIVNLSGRGDKDLDIVLKASGNVLEHHHHHH
activity and promiscuity of PfTrpB variant in SUMS [2]: generally activated
activity of PfTrpB mutant ([2]; 75° C.): activating
